Test [1] has as its target NRXN1β (lacking SS4) Fc fusion used as bait in the pull-down. The test can be described thus: pull-down. The settings on record: chain shown with the change;; parent: est. 100; read off a plot.
Test [2] has as its target PTPδA3B– extracellular domain fused to Fc (mouse). The test can be described thus: pull-down; soluble recombinant proteins mixed at 0.03 μM each in HBSS, 2 mM CaCl2, 1 mM MgCl2, 3 h, then Protein A-Sepharose 1 h, room temperature; NLGN3-His6 detected with anti-His.

Sequence of NRXN1β (lacking SS4) Fc fusion used as bait in the pull-down (chain, as listed by the source): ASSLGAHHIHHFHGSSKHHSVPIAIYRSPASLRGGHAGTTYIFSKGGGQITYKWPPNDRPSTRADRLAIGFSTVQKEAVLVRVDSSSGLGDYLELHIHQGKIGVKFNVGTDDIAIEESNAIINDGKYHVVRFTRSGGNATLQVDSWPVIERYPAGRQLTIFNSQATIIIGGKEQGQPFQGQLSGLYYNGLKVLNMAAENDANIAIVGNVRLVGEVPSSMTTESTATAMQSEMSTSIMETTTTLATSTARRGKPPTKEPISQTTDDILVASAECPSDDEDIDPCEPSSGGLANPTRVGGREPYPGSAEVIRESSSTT
Sequence of PTPδA3B– extracellular domain fused to Fc (mouse) (Q64487 other isoform, or with tags, fused parts or gaps mutant): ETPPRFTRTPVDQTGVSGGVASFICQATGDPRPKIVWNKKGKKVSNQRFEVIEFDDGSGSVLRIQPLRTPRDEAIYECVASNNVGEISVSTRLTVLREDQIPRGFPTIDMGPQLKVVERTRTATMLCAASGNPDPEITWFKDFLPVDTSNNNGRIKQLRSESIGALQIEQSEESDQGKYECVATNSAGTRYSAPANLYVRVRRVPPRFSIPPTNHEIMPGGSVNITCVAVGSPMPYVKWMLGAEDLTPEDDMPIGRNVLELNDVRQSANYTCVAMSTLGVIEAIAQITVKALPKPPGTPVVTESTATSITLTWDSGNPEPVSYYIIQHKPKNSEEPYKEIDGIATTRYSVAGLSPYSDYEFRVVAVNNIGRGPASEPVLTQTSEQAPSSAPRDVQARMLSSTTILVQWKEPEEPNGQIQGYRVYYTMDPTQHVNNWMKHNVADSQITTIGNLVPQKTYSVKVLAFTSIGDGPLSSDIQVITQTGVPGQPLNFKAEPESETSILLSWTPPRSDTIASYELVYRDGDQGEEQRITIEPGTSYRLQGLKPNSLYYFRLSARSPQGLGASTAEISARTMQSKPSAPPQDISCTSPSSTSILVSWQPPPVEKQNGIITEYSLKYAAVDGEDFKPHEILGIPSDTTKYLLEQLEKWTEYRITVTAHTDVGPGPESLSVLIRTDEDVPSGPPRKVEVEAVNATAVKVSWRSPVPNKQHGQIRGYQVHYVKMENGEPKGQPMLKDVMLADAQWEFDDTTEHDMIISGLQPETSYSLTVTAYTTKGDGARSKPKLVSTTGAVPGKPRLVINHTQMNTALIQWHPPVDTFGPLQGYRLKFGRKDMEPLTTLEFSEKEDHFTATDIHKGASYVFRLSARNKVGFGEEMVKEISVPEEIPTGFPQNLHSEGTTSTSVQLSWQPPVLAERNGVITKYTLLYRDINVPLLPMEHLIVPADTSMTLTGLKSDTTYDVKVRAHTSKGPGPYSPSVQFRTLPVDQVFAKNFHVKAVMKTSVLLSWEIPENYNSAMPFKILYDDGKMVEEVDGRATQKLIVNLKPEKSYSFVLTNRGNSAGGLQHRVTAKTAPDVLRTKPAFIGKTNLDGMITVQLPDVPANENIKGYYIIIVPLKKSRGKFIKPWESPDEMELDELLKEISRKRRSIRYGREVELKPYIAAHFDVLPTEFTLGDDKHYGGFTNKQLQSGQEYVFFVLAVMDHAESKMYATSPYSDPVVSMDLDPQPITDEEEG

B1: mouse NLGN3 ECD (residues 35–684) with C-terminal His6 tag, Q8BYM5 H279A; S280A; E281A (protein)
chain: QAPAPTVNTHFGKLRGARVPLPSEILGPVDQYLGVPYAAPPIGEKRFLPPEPPPSWSGIRNATHFPPVCPQNIHTAVPEVMLPVWFTANLDIVATYIQEPNEDCLYLNVYVPTEDGSGAKKQGEDLADNDGDEDEDIRDSGAKPVMVYIHGGSYMEGTGNMIDGSVLASYGNVIVITLNYRVGVLGFLSTGDQAAKGNYGLLDQIQALRWVSENIAFFGGDPRRITVFGSGIGASCVSLLTLSHAAAGLFQRAIIQSGSALSSWAVNYQPVKYTSLLADKVGCNVLDTVDMVDCLRQKSAKELVEQDIQPARYHVAFGPVIDGDVIPDDPEILMEQGEFLNYDIMLGVNQGEGLKFVEGVVDPEDGVSGTDFDYSVSNFVDNLYGYPEGKDTLRETIKFMYTDWADRDNPETRRKTLVALFTDHQWVEPSVVTADLHARYGSPTYFYAFYHHCQSLMKPAWSDAAHGDEVPYVFGVPMVGPTDLFPCNFSKNDVMLSAVVMTYWTNFAKTGDPNKPVPQDTKFIHTKANRFEEVAWSKYNPRDQLYLHIGLKPRVRDHYRATKVAFWKHLVPHLYNLHDMFHYTSTTTKVPPPDTTHSSHITRRPNGKTWSTKRPAISPAYSNENAPGSWNGDQDAGPLLVENPRDYSTE
Take B1: the percent of parent in test [1] came out at 22 % WT.

B2: mouse NLGN3 ECD (residues 35–684) with C-terminal His6 tag, Q8BYM5 M614I; F615S (protein)
chain: QAPAPTVNTHFGKLRGARVPLPSEILGPVDQYLGVPYAAPPIGEKRFLPPEPPPSWSGIRNATHFPPVCPQNIHTAVPEVMLPVWFTANLDIVATYIQEPNEDCLYLNVYVPTEDGSGAKKQGEDLADNDGDEDEDIRDSGAKPVMVYIHGGSYMEGTGNMIDGSVLASYGNVIVITLNYRVGVLGFLSTGDQAAKGNYGLLDQIQALRWVSENIAFFGGDPRRITVFGSGIGASCVSLLTLSHHSEGLFQRAIIQSGSALSSWAVNYQPVKYTSLLADKVGCNVLDTVDMVDCLRQKSAKELVEQDIQPARYHVAFGPVIDGDVIPDDPEILMEQGEFLNYDIMLGVNQGEGLKFVEGVVDPEDGVSGTDFDYSVSNFVDNLYGYPEGKDTLRETIKFMYTDWADRDNPETRRKTLVALFTDHQWVEPSVVTADLHARYGSPTYFYAFYHHCQSLMKPAWSDAAHGDEVPYVFGVPMVGPTDLFPCNFSKNDVMLSAVVMTYWTNFAKTGDPNKPVPQDTKFIHTKANRFEEVAWSKYNPRDQLYLHIGLKPRVRDHYRATKVAFWKHLVPHLYNLHDISHYTSTTTKVPPPDTTHSSHITRRPNGKTWSTKRPAISPAYSNENAPGSWNGDQDAGPLLVENPRDYSTE
As for B2, the percent of parent in test [1] came to 115 % WT.

B3: mouse NLGN3 ECD (residues 35–684) with C-terminal His6 tag, Q8BYM5 D362A; E372A; N375A (protein)
chain: QAPAPTVNTHFGKLRGARVPLPSEILGPVDQYLGVPYAAPPIGEKRFLPPEPPPSWSGIRNATHFPPVCPQNIHTAVPEVMLPVWFTANLDIVATYIQEPNEDCLYLNVYVPTEDGSGAKKQGEDLADNDGDEDEDIRDSGAKPVMVYIHGGSYMEGTGNMIDGSVLASYGNVIVITLNYRVGVLGFLSTGDQAAKGNYGLLDQIQALRWVSENIAFFGGDPRRITVFGSGIGASCVSLLTLSHHSEGLFQRAIIQSGSALSSWAVNYQPVKYTSLLADKVGCNVLDTVDMVDCLRQKSAKELVEQDIQPARYHVAFGPVIDGDVIPADPEILMEQGAFLAYDIMLGVNQGEGLKFVEGVVDPEDGVSGTDFDYSVSNFVDNLYGYPEGKDTLRETIKFMYTDWADRDNPETRRKTLVALFTDHQWVEPSVVTADLHARYGSPTYFYAFYHHCQSLMKPAWSDAAHGDEVPYVFGVPMVGPTDLFPCNFSKNDVMLSAVVMTYWTNFAKTGDPNKPVPQDTKFIHTKANRFEEVAWSKYNPRDQLYLHIGLKPRVRDHYRATKVAFWKHLVPHLYNLHDMFHYTSTTTKVPPPDTTHSSHITRRPNGKTWSTKRPAISPAYSNENAPGSWNGDQDAGPLLVENPRDYSTE
Turning to B3, in test [1], the percent of parent amounted to 18 % WT.

B4: NLGN3 ECD R448C mutant (R/C; equivalent to human R451C) with His6 tag, Q8BYM5 35-684 (domain or fragment)
chain: QAPAPTVNTHFGKLRGARVPLPSEILGPVDQYLGVPYAAPPIGEKRFLPPEPPPSWSGIRNATHFPPVCPQNIHTAVPEVMLPVWFTANLDIVATYIQEPNEDCLYLNVYVPTEDGSGAKKQGEDLADNDGDEDEDIRDSGAKPVMVYIHGGSYMEGTGNMIDGSVLASYGNVIVITLNYRVGVLGFLSTGDQAAKGNYGLLDQIQALRWVSENIAFFGGDPRRITVFGSGIGASCVSLLTLSHHSEGLFQRAIIQSGSALSSWAVNYQPVKYTSLLADKVGCNVLDTVDMVDCLRQKSAKELVEQDIQPARYHVAFGPVIDGDVIPDDPEILMEQGEFLNYDIMLGVNQGEGLKFVEGVVDPEDGVSGTDFDYSVSNFVDNLYGYPEGKDTLRETIKFMYTDWADRDNPETRCKTLVALFTDHQWVEPSVVTADLHARYGSPTYFYAFYHHCQSLMKPAWSDAAHGDEVPYVFGVPMVGPTDLFPCNFSKNDVMLSAVVMTYWTNFAKTGDPNKPVPQDTKFIHTKANRFEEVAWSKYNPRDQLYLHIGLKPRVRDHYRATKVAFWKHLVPHLYNLHDMFHYTSTTTKVPPPDTTHSSHITRRPNGKTWSTKRPAISPAYSNENAPGSWNGDQDAGPLLVENPRDYSTE
For the molecule B4, the pulldown efficiency (% of wild-type) (% of wild-type) in test [2] stood at 20.

B5: mouse NLGN3 ECD (residues 35–684) with C-terminal His6 tag, Q8BYM5 M614A; F615A (protein)
chain: QAPAPTVNTHFGKLRGARVPLPSEILGPVDQYLGVPYAAPPIGEKRFLPPEPPPSWSGIRNATHFPPVCPQNIHTAVPEVMLPVWFTANLDIVATYIQEPNEDCLYLNVYVPTEDGSGAKKQGEDLADNDGDEDEDIRDSGAKPVMVYIHGGSYMEGTGNMIDGSVLASYGNVIVITLNYRVGVLGFLSTGDQAAKGNYGLLDQIQALRWVSENIAFFGGDPRRITVFGSGIGASCVSLLTLSHHSEGLFQRAIIQSGSALSSWAVNYQPVKYTSLLADKVGCNVLDTVDMVDCLRQKSAKELVEQDIQPARYHVAFGPVIDGDVIPDDPEILMEQGEFLNYDIMLGVNQGEGLKFVEGVVDPEDGVSGTDFDYSVSNFVDNLYGYPEGKDTLRETIKFMYTDWADRDNPETRRKTLVALFTDHQWVEPSVVTADLHARYGSPTYFYAFYHHCQSLMKPAWSDAAHGDEVPYVFGVPMVGPTDLFPCNFSKNDVMLSAVVMTYWTNFAKTGDPNKPVPQDTKFIHTKANRFEEVAWSKYNPRDQLYLHIGLKPRVRDHYRATKVAFWKHLVPHLYNLHDAAHYTSTTTKVPPPDTTHSSHITRRPNGKTWSTKRPAISPAYSNENAPGSWNGDQDAGPLLVENPRDYSTE
On to B5, for which, in test [1], the percent of parent was determined as 104 % WT.

Source of the values: PMC7988105.
